Assay results from patent publication US20150037339A1 (Regeneron, published 2015).
Where a chain is given by its changes, count along the chain named. One block for each binder: values may come before it.

Tests used:
[1] = target: T1, Activin A (human, UniProt P08476 311-426); experiment: cell-based or functional assay
T1 sequence: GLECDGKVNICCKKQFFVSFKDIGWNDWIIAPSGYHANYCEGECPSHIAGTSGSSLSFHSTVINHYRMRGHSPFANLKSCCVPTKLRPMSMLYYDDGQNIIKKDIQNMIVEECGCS

[2] = target: T2, Activin AB (human, UniProt P08476 311-426; P09529 293-407); experiment: SPR (Biacore), mAb captured on anti-Fc, Activin AB injected, 25 C
T2 construct: Heterodimer of one betaA and one betaB subunit; bought (R&D Systems #1006-AB-005 / #1066-AB)
T2 chain 1: T1 sequence
T2 chain 2: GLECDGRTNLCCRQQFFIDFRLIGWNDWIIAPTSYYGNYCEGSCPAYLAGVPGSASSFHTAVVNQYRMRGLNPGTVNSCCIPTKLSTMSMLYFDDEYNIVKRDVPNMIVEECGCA
Method: (§1) Antibody-antigen association was monitored for 240 seconds while dissociation in buffer was monitored for 600 seconds. Kinetic association and dissociation rate constants were determined by processing and fitting the data using Scrubber software version 2.0c. Binding equilibrium dissociation constants (KD) and dissociative half-lives (t_{1/2}) were then calculated from the kinetic rate constants as: KD (M)=kd/kₐ and t_{1/2} (min)=[ln 2/(60*kd)]. (NB=no binding observed under the conditions used; NT=not tested).

[3] = target: T2, Activin AB; experiment: SPR (Biacore), mAb captured on anti-Fc, Activin AB injected, 37 C
Method: as §1

[4] = target: T3, Activin AC (human, UniProt P55103 237-352); experiment: SPR (Biacore), mAb captured on anti-Fc, Activin AC injected, 25 C
T3 construct: Heterodimer of one betaA and one betaC subunit; bought (R&D Systems #4879-AC)
T3 sequence 1: T1 sequence
T3 sequence 2: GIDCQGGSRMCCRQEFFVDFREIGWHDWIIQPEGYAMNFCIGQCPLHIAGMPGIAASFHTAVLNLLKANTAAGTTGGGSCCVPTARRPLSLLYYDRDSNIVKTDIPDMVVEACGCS
Method: as §1

[5] = target: T3, Activin AC; experiment: SPR (Biacore), mAb captured on anti-Fc, Activin AC injected, 37 C
Method: as §1

[6] = target: T4, Activin A (human, UniProt P08476 311-426); experiment: SPR, captured mAb, 25C
T4 construct: Homodimer of two βA subunits; bought from R&D Systems (#338-AC); also called inhibin-βA dimer; human Activin A
T4 sequence: T1 sequence
Method: as §1

[7] = target: T4, Activin A; experiment: SPR, captured mAb, 37C
Method: as §1

[8] = target: T4, Activin A; experiment: SPR, captured mAb, 25C; no dissociation observed, kd fixed
Method: as §1

[9] = target: T4, Activin A; experiment: SPR, captured mAb, 37C; no dissociation observed, kd fixed
Method: as §1

[10] = target: T2, Activin AB; experiment: cell-based or functional assay
[11] = target: T3, Activin AC; experiment: cell-based or functional assay

B1: H4H10423P (antibody, human IgG4, V domains shown)
VH: QVQLQQSGPGLLKPSQTLSLTCAISGDSVSSNSAAWSWIRQSPSRGLEWLGRTYYRANWFNDYALSVKSRITINPVTSTNHFSLQLHSVTPEDTAVYYCAREGALGYYFDSWGQGTLVTVSS
VL: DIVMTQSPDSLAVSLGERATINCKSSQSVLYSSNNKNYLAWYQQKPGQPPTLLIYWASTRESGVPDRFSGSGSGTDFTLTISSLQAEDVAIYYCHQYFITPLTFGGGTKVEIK
IC50 [M], inhibition of 100 pM Activin A in A204/CAGAx12-Luc Smad2/3-luciferase bioassay [1]: 2e-10 M
50 nM Ag Bound (RU) [2]: 14.7 RU
Kd [2]: 33.1 nM
koff [2]: 0.0203 s⁻¹
kon [2]: 613000 M⁻¹ s⁻¹
t1/2 [2]: 0.6 min
50 nM Ag Bound (RU) [3]: 21.7 RU
Kd [3]: 24.2 nM
koff [3]: 0.0213 s⁻¹
kon [3]: 880000 M⁻¹ s⁻¹
t1/2 [3]: 0.5 min
50 nM Ag Bound (RU) [4]: -0.8 RU
50 nM Ag Bound (RU) [5]: 0 RU

B2: H4H10426P (antibody, human IgG4, V domains shown)
VH: EVQLVESGGNLVQSGRSLRLSCTASGFAFDDFAMHWVRQVPGKGLEWVSGISWNSDTIGYADSVKGRFTISRDNAQNSLFLQMDSLRAEDTALYYCVKDMVRGLIGYYYYGMDVWGQGTTVTVSS
VL: EIVLTQSPAILSLSPGERAILSCRASQSIYTYLSWYQQTPGRAPRLLIYETSSRATGIPARFIGSGSGTDFTLTISSLEPEDFAFYYCQHRSDWPPTFGQGTKLEIK
IC50 [M], inhibition of 100 pM Activin A in A204/CAGAx12-Luc Smad2/3-luciferase bioassay [1]: 2.3e-10 M

B3: H4H10445P2 (antibody, human IgG4, V domains shown)
VH: QVQLQESGPGLVKPSETLSLICSVSGGSFSSHFWSWIRQPPGKGLEWIGYVLYSGGTNYNPSLKSRVTISVDTSKNQFFLKLSSVTAADTADYYCARAISGITFGGIIVPGSFDIWGQGTMVTVSS
VL: not shown
IC50 [M], inhibition of 100 pM Activin A in A204/CAGAx12-Luc Smad2/3-luciferase bioassay [1]: 5.3e-11 M

B4: H4H10445P2 (antibody, human IgG4, V domains shown)
VH: B3 VH
VL: not shown
Activin A-20 nM (RU) [6]: 43 RU
Kd [6]: ≤ 0.0208 nM
kon [6]: 2.4e+06 M⁻¹ s⁻¹
t1/2 [6]: ≥ 231 min
Activin A-20 nM (RU) [7]: 36 RU
Kd [7]: ≤ 0.0115 nM
kon [7]: 4.33e+06 M⁻¹ s⁻¹
t1/2 [7]: ≥ 231 min
koff [8]: ≤ 5e-05 s⁻¹
koff [9]: ≤ 5e-05 s⁻¹

B5: H4H10424P (antibody, human IgG4, V domains shown)
VH: QVQLVESGGGVVQPGRSLRLSCAASGFTFSSYGMHWVRQAPGKGLEWVAVIWYDGSNKYNADSVKGRFTISRDNSKNTVYLQMNSLRAEDTAVYYCARARNYDILTGYYNLGMDVWGQGTTVTVSS
VL: DIQMTQSPSSLSASVGDRVTITCRASQGIRNDLGWYQQKPGKAPKRLIYAASSLQSGVPSRFSGSGSGTEFTLTISSLQPEDFATYYCLQHNSYPYTFGQGTKLEIK
IC50 [M], inhibition of 100 pM Activin A in A204/CAGAx12-Luc Smad2/3-luciferase bioassay [1]: 7.6e-10 M

B9: H4H10438P2 (antibody, human IgG4, V domains shown)
VH: EVQLVESGGGLVQPGRSLRLSCAASGFTFDDNAMHWVRQPPGKGLEWVSGISWNSGSIGYADSVKGRFTISRDNAKNSLYLQMNSLRAEDTALYYCAKDINDILTGYPLFDYWGQGTLVTVSS
VL: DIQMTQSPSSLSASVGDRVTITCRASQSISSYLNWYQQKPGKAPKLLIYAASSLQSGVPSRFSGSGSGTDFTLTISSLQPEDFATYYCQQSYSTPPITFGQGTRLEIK
IC50 [M], inhibition of 100 pM Activin A in A204/CAGAx12-Luc Smad2/3-luciferase bioassay [1]: 2.6e-10 M

B11: H2aM10965N (antibody, mouse IgG2a, V domains shown)
VH: RVQLVQSGSEVKKPGASVKVSCRASGYIFTSYDINWVRQATGQGLEWMGWMNPNNGNTAYTQKFQGRVTMTRNTSISTAYMELSSLRSEDTAVYYCARKGLLWFGKLLGYGMDVWGQGTTVTVSS
VL: not shown
IC50 [M], inhibition of 100 pM Activin A in A204/CAGAx12-Luc Smad2/3-luciferase bioassay [1]: 3.5e-09 M

B12: H2aM10965N (antibody, mouse IgG2a, V domains shown)
VH: B11 VH
VL: not shown
Activin A-20 nM (RU) [6]: 76 RU
Kd [6]: 0.745 nM
koff [6]: 0.0011 s⁻¹
kon [6]: 1.48e+06 M⁻¹ s⁻¹
t1/2 [6]: 10 min
Activin A-20 nM (RU) [7]: 80 RU
Kd [7]: 1.77 nM
koff [7]: 0.00415 s⁻¹
kon [7]: 2.35e+06 M⁻¹ s⁻¹
t1/2 [7]: 3 min

B13: H4H10437P2 (antibody, human IgG4, V domains shown)
VH: EVQLVESGGGLVQPGRSLRLSCAASGFTFDDYAMHWVRQAPGKGLEWVSGISWNSGSIGYADSVKGRFTISRDNAKNSLYLQMNSLRAEDTALYYCAKDIMGNWDYFYGMDVWGQGTTVTVSS
VL: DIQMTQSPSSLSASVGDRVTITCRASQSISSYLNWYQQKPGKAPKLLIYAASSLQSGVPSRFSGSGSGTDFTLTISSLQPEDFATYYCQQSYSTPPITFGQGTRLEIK
IC50 [M], inhibition of 100 pM Activin A in A204/CAGAx12-Luc Smad2/3-luciferase bioassay [1]: 2.9e-10 M

B14: H4H10432P2 (antibody, human IgG4, V domains shown)
VH: EVQLVESGGGLVQPGRSLTLSCAVSGFTFDDHAMHWVRQAPGKGLEWVSGISWNSVSIGYADSVKGRFTISRDNAKTSLYLQMNSLRVDDTALYYCVQDLNDILTGYPLFDFWGQGTLVTVSS
VL: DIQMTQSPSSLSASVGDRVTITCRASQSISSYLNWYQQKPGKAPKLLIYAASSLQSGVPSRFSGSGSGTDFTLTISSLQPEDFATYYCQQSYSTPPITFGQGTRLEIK
IC50 [M], inhibition of 100 pM Activin A in A204/CAGAx12-Luc Smad2/3-luciferase bioassay [1]: 1.1e-10 M
IC50 [M], inhibition of 30 pM Activin AB in A204/CAGAx12-Luc Smad2/3-luciferase bioassay [10]: 8e-10 M
IC50 [M], inhibition of 4 nM Activin AC in A204/CAGAx12-Luc Smad2/3-luciferase bioassay [11]: 2.8e-09 M
50 nM Ag Bound (RU) [2]: 38.3 RU
Kd [2]: 0.568 nM
koff [2]: 0.00227 s⁻¹
kon [2]: 4e+06 M⁻¹ s⁻¹
t1/2 [2]: 5.1 min
50 nM Ag Bound (RU) [3]: 44.4 RU
Kd [3]: 1.1 nM
koff [3]: 0.00592 s⁻¹
kon [3]: 5.4e+06 M⁻¹ s⁻¹
t1/2 [3]: 2 min
50 nM Ag Bound (RU) [4]: 34.9 RU
Kd [4]: 2.98 nM
koff [4]: 0.00187 s⁻¹
kon [4]: 629000 M⁻¹ s⁻¹
t1/2 [4]: 6.2 min
50 nM Ag Bound (RU) [5]: 34.6 RU
Kd [5]: 12.5 nM
koff [5]: 0.00902 s⁻¹
kon [5]: 722000 M⁻¹ s⁻¹
t1/2 [5]: 1.3 min

The next lines start with the values.

IC50 [M], inhibition of 100 pM Activin A in A204/CAGAx12-Luc Smad2/3-luciferase bioassay [1]: 3.9e-11 M
IC50 [M], inhibition of 30 pM Activin AB in A204/CAGAx12-Luc Smad2/3-luciferase bioassay [10]: 2.3e-09 M
IC50 [M], inhibition of 4 nM Activin AC in A204/CAGAx12-Luc Smad2/3-luciferase bioassay [11]: 3.4e-09 M
50 nM Ag Bound (RU) [2]: 34.7 RU
Kd [2]: 0.556 nM
koff [2]: 0.00209 s⁻¹
kon [2]: 3.76e+06 M⁻¹ s⁻¹
t1/2 [2]: 5.5 min
50 nM Ag Bound (RU) [3]: 34.5 RU
Kd [3]: 0.88 nM
koff [3]: 0.00443 s⁻¹
kon [3]: 5.03e+06 M⁻¹ s⁻¹
t1/2 [3]: 2.6 min
50 nM Ag Bound (RU) [4]: 17.2 RU
Kd [4]: 7.41 nM
koff [4]: 0.00592 s⁻¹
kon [4]: 798000 M⁻¹ s⁻¹
t1/2 [4]: 2 min
50 nM Ag Bound (RU) [5]: 10.7 RU
Kd [5]: 17.3 nM
koff [5]: 0.0124 s⁻¹
kon [5]: 719000 M⁻¹ s⁻¹
t1/2 [5]: 0.9 min
B6: H4H10468P2 (antibody, human IgG4, V domains shown)
VH: QVQLQESGPGLVKPSETLSLTCTVSGGSFSSHFWSWIRQPPGKGLEWIGYIYYSGGTHYNPSLESRVTISVDTSKNQFSLKLNSVTAADTAVYYCARARSGITFGGLIVPGSFDIWGQGTMVTVSS
VL: not shown

IC50 [M], inhibition of 100 pM Activin A in A204/CAGAx12-Luc Smad2/3-luciferase bioassay [1]: 4.6e-11 M
B7: H4H10448P2 (antibody, human IgG4, V domains shown)
VH: B6 VH with S28T, Y52F, S54T, H58N, Y59H, E64K, V71I, N83T, L107V
VL: not shown

IC50 [M], inhibition of 100 pM Activin A in A204/CAGAx12-Luc Smad2/3-luciferase bioassay [1]: 7.8e-11 M
B8: H4H10447P2 (antibody, human IgG4, V domains shown)
VH: B3 VH with I21T, V51I, L52H, F79S, S83T, I107M, I115V, Q118E
VL: not shown

IC50 [M], inhibition of 100 pM Activin A in A204/CAGAx12-Luc Smad2/3-luciferase bioassay [1]: 5.8e-11 M
B10: H4H10452P2 (antibody, human IgG4, V domains shown)
VH: QVQLQESGPGLVKPSETLSLTCTVSGGSFSSHFWNWIRQSPGRGLEWIGYIYYSGGTNYNPSFKSRVTMSVDTSKNQFSLKLSSVTAADTAVFYCARARSGITFGGVLVPGSFDIWGQGTMVTVSS
VL: not shown
